T1: human EphA8 (Homo sapiens, UniProt P29322)
T1 construct: a protein of the extracellular region of each human Eph receptor fused with the SEAP protein and the His tag; made in house; host or cells: Expi293F cells (culture supernatant)
T1 sequence (P29322 28-542 limits assumed): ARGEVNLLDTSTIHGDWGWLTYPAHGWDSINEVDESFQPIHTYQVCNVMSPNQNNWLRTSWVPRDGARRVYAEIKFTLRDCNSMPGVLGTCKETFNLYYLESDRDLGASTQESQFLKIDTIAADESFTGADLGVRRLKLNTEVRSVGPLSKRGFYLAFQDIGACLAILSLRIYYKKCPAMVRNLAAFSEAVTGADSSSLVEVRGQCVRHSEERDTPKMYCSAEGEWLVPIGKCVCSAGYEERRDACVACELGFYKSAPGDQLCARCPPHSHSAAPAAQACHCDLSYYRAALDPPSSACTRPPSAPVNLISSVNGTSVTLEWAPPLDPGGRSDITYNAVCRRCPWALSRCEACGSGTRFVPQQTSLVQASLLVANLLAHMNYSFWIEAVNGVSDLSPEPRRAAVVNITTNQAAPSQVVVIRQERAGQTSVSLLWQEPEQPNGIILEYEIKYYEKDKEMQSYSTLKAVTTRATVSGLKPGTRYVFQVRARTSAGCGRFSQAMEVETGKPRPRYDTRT

T2: human EphA10 (Homo sapiens, UniProt Q5JZY3)
T2 construct: a protein of the extracellular region of each human Eph receptor fused with the SEAP protein and the His tag; made in house; host or cells: Expi293F cells (culture supernatant)
T2 sequence (Q5JZY3 34-565 limits assumed): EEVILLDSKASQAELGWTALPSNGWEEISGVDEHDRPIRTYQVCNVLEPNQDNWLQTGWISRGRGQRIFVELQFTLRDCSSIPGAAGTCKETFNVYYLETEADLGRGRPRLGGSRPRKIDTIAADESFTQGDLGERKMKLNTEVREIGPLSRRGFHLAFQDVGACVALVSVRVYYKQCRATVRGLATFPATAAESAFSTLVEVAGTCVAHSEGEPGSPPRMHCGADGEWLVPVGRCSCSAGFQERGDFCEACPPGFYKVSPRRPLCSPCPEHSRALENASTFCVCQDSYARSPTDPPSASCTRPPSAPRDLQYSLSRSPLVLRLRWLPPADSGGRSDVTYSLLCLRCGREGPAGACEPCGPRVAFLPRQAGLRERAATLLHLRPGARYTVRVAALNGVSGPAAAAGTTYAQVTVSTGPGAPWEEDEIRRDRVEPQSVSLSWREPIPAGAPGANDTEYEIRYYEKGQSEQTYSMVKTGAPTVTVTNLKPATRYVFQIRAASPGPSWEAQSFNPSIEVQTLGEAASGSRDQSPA

T3: human EphA7 (Homo sapiens, UniProt Q15375)
T3 construct: a protein of the extracellular region of each human Eph receptor fused with the SEAP protein and the His tag; made in house; host or cells: Expi293F cells (culture supernatant)
T3 sequence (Q15375 28-555 limits assumed): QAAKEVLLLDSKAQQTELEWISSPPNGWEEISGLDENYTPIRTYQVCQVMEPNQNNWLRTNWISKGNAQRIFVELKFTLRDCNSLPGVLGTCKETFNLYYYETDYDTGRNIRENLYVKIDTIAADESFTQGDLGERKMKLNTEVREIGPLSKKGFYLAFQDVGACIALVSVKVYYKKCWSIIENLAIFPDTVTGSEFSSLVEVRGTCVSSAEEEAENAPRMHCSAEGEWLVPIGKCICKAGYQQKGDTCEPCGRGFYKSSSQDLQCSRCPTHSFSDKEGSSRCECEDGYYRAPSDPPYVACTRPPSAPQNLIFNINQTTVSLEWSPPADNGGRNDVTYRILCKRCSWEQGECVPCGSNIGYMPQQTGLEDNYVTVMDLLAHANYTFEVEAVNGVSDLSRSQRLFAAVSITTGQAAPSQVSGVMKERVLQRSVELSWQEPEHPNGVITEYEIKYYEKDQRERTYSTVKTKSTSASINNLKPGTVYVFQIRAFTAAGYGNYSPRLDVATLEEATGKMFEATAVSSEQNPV

B1: 90 (antibody, V domains shown)
VL: DIQMTQSPSSLSASVGDRVTITCRASENIYRNLAWYQQKPGKAPQLLLYAATNLADGVPSRFSGSGSGTDYTLTISSLQPEDFATYYCQHFWGTPWTFGQGTKVEIK
VH: QVQLVQSGSELKKPGASVKVSCKASGYTFTDYSMHWVRQAPGQGLEWMGWINTETGEPTYADDFKGRFVFSLDTSVSTAYLQISSLKAEDTAVYYCARIPLYYYGSRYWYFDVWGQGTTVTVSS
modifications: constant regions without entry; synthetic humanized antibody light chain variable region sequence; synthetic humanized antibody heavy chain variable region sequence
B2: 92 (antibody, V domains shown)
VL: DIQMTQSPSSLSASVGDRVTITCRASENIYRNLAWYQQKPGKAPQLLLYAATNLADGVPSRFSGSGSGTDYTLTISSLQPEDFATYYCQHFWGTPWTFGQGTKVEIK
VH: QIQLVQSGSELKKPGASVKVSCKASGYTFTDYSMHWVRQAPGQGLKWMGWINTETGEPTYADDFKGRFVFSLDTSVSTAYLQISSLKAEDTAVYYCARIPLYYYGSRYWYFDVWGQGTTVTVSS
modifications: constant regions without entry; synthetic humanized antibody light chain variable region sequence; synthetic humanized antibody heavy chain variable region sequence
B3: 91 (antibody, V domains shown)
VL: DIQMTQSPSSLSASVGDRVTITCRASENIYRNLAWYQQKPGKAPQLLLYAATNLADGVPSRFSGSGSGTDYTLTISSLQPEDFATYYCQHFWGTPWTFGQGTKVEIK
VH: QVQLVQSGSELKKPGASVKVSCKASGYTFTDYSMHWVRQAPGQGLKWMGWINTETGEPTYADDFKGRFVFSLDTSVSTAYLQISSLKAEDTAVYYCARIPLYYYGSRYWYFDVWGQGTTVTVSS
modifications: constant regions without entry; synthetic humanized antibody light chain variable region sequence; synthetic humanized antibody heavy chain variable region sequence
B4: 93 (antibody, V domains shown)
VL: EIVMTQSPATLSVSPGERATLSCRASENIYRNLAWYQQKPGQSPRLLIYAATNLADGIPARFSGSGSGTEYTLTISSLQSEDFAVYYCQHFWGTPWTFGQGTKVEIK
VH: QVQLVQSGSELKKPGASVKVSCKASGYTFTDYSMHWVRQAPGQGLEWMGWINTETGEPTYAQGFTGRFVFSLDTSVSTAYLQISSLKAEDTAVYYCARIPLYYYGSRYWYFDVWGQGTTVTVSS
modifications: constant regions without entry; synthetic humanized antibody light chain variable region sequence; synthetic humanized antibody heavy chain variable region sequence

Columns and labels:
Test in all cases: Selectivity ELISA of humanized antibodies for human Eph receptor
Type in all cases: binding
[1] = molecular target: T4, human EphA4 (Homo sapiens, UniProt P54764); conditions: coated protein 1 nM; reference set to 100%
T4 construct: made in house; not restated for the human SEAP-His protein
Procedure, shortened: (§1)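 Human Eph ECD-SEAP-His fusions, harvested after 5 days of Expi293F expression, are captured on anti-His-coated wells (1 nM final). Bound humanized antibody is detected with HRP anti-IgG and TMB at 450 nm.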

[2] = molecular target: T1, human EphA8; conditions: coated protein 1 nM
Procedure, shortened: as §1

[3] = molecular target: T2, human EphA10; conditions: coated protein 1 nM
Procedure, shortened: as §1

[4] = molecular target: T3, human EphA7; conditions: coated protein 1 nM
Procedure, shortened: as §1

T4 sequence (P54764 20-547): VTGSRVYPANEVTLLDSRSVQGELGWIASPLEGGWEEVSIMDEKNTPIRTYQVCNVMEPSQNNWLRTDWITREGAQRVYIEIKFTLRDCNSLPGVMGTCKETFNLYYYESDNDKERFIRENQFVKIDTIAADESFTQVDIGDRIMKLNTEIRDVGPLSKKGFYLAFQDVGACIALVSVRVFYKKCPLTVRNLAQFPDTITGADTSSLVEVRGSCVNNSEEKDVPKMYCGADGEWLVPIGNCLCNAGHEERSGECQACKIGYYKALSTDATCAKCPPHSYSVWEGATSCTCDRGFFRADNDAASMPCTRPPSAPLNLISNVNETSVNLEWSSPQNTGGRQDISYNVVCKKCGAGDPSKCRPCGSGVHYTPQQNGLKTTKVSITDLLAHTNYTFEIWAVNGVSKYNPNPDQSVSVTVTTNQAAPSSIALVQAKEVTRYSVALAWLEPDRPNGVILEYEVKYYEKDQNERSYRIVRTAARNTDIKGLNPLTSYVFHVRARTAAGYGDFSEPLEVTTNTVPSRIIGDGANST

Row | Molecule | hEphA4-SEAP-: absorbance at 450 nm, percentage with respect to hEphA4-SEAP-His as 100% [1] [%] | hEphA8-SEAP-: absorbance at 450 nm, percentage with respect to hEphA4-SEAP-His as 100% [2] [%] | hEphA10-SEAP-: absorbance at 450 nm, percentage with respect to hEphA4-SEAP-His as 100% [3] [%] | hEphA7-SEAP-: absorbance at 450 nm, percentage with respect to hEphA4-SEAP-His as 100% [4] [%]
1 | B1 | 100 | 5.4 | 5.1 | 4.9
2 | B2 | 100 | 6.7 | 6.6 | 6.4
3 | B3 | 100 | 6.2 | 8.5 | 5.6
4 | B4 | 100 | 5.0 | 4.9 | 4.9

From patent publication US10428140B2, “Anti-EphA4 antibody” (EISAI R&D MANAGEMENT CO., LTD., priority 2015, dated 2019)
